Patent US20100166746A1 (published 2010)

Target: T1, human EphA2 antigen (human, UniProt P29317 24-534, limits assumed)
T1 construct: also called human EphA2 tumor antigen
Test: kinetic parameters, ratio to G5 reference

T1 sequence (P29317 24-534 limits assumed): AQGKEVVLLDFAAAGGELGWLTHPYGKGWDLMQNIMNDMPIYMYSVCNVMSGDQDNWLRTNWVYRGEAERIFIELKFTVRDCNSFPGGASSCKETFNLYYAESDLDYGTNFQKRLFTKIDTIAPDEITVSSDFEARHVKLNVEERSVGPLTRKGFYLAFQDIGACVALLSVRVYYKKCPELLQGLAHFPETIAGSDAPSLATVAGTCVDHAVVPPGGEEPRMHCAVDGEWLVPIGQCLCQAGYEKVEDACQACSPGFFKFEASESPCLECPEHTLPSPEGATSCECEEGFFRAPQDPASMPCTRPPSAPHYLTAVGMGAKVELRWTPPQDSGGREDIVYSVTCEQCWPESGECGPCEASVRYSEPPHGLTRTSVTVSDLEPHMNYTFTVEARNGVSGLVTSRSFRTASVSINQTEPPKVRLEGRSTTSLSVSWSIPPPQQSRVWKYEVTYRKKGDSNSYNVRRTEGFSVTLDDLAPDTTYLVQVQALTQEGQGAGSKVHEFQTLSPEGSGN

fold faster Koff as compared to G5: ~3 fold | fold faster Kon as compared to G5: ~3.5 fold
B1: 3F2 anti-EphA2 antibody (antibody, V domains shown)
VH: EVQLVESGGGVVRPGGSLRLSCAASGFTVSDYSMNWVRQAPGKGLEWIGFIRNKANAYTTEYSASVKGRFTISRDDSKNTLYLQMNSLKTEDTAVYYCTTYPRYHAMDSWGQGTMVTVSS
VL: AIQLTQSPSSLSASVGDRVTITCRASQSISNNLHWYLQKPGQSPQLLIYYGFQSISGVPSRFSGSGSGTDFTLTISSLQPEDFATYYCQQANSWPLTFGGGTKLEIK
